The values that follow come from publication PMC8880779 (International Journal of Molecular Sciences, 2022).

On the set-up of data set [1]: method as in PMID 15890345, PMID 18686032, PMID 26890761, PMID 34829555. Conditions: cited from earlier work.
Data set [2] has as its target (Ca^2+)4-CaM. Conditions: read-out: dissociation constant of the Aβ:(Ca^2+)4-CaM complex; cited from earlier work. An excerpt:
These neurons are in the brain areas that are highly prone to neurodegeneration in AD. […] Considering their spatial organization in the CaM structure, we included a couple of additional hydrophobic amino acid residues as spacing groups.

For data set [3], the target named is T1, calmodulin (CaM) (Bos taurus, UniProt P62157).
T1 construct: Purified bovine brain CaM; purchased Sigma-Aldrich (Madrid, Spain); host or cells: bovine brain
Nature of the data set: Kinetics of Aβ(1–42) HiLyte-Fluor555 complex formation with CaM (fluorescence increase). The format is binding, human.

For data set [4], the system named is CaM in cerebellar granule neurons in culture. Conditions: 2 h incubation with 2 μM Aβ(1–42) oligomers; cited from earlier work. An excerpt:
These neurons are in the brain areas that are highly prone to neurodegeneration in AD. […] Therefore, CaM has a high capacity to buffer the intracellular concentrations of these highly neurotoxic Aβ peptides ...

Data set [5] is described as follows: Aggregation state of Aβ(1–42) stock solutions (photoinduced cross-linking of unmodified proteins). The format is physicochemical. Conditions: 2 μM stock solutions.

With “Aβ(25–35): highly neurotoxic peptides derived from Aβ(1–42), like Aβ(25–35) (GSNKGAIIGLM; Amyloid-beta protein 42; UniProt P05067 696-706, looked up, fragment)”, the neurotoxicity result in data set [1] was “strongly neurotoxic”. Moreover, the Kd in data set [2] is around 1 nM.
Regarding “Aβ(1–42) HiLyte^TM-Fluor555: Human Aβ(1–42)-HiLyte™-Fluor555 obtained from AnaSpec”, the “Y0, maximum fluorescence increase in the absence of the peptide” value in data set [3] (10 nM Aβ(1–42) HiLyte-Fluor555, 5 nM CaM, 1000 s after addition, hyperbolic fit R^2 = 0.966, triplicate) came out at 22%. In data set [3] (10 nM Aβ(1–42) HiLyte-Fluor555, CaM 2.5, 5 and 10 nM), the “maximum fluorescence change vs CaM concentration” value is “the maximum fluorescence change was achieved when CaM concentration increased from 2.5 to 5 nM, and it is not significantly different between 5 and 10 nM of CaM”. In addition, the “slope of linear least-squares fit of first-order plot” value in data set [3] (fit y = 9.845 − 0.00396 x (R^2 = 0.922), 10 nM Aβ(1–42) HiLyte-Fluor555, 5 nM CaM, sign of slope in the equation negative) was found to be 0.00396.
As for “Aβ(1–42): unlabeled Aβ(1–42) synthesized and supplied by StabVida and GenicBio Limited”, in data set [4], the “binding of internalized Aβ(1–42) by CaM” value is “CaM binds most of the Aβ(1–42) internalized in cerebellar granule neurons”. For the same substance, the concentration of monomers result in data set [5] was “undetectable concentration of Aβ(1–42) monomers”. For the same substance, in data set [5] (1% NH4OH diluted with phosphate-buffered saline), the predominant aggregation state entry is on record as “Dimers are the predominant aggregation state”. Also, the stoichiometry of complex entry in data set [3] (10 nM CaM, 10 nM Aβ(1–42)) is recorded as “Aβ(1–42)2:CaM2 complexes”. In addition, the “increase of rate constant” value in data set [3] (10 nM vs 5 nM CaM, 10 nM Aβ(1–42)) is “about 4 fold”. In addition, in data set [3] (1:1 molar ratio, 10 nM CaM and 10 nM Aβ(1–42)), the “rate constant of the kinetic process” value is listed as “(18 ± 4)·10^−3 s^−1”. Besides, the Kd in data set [2] is around 1 nM.
